Experimental data from the supplement of paper PMC10567573.

B1: SNX3 (parent)
chain: FLRQLPFRGDDGIFDDNFIEERKQ
B2: YPEL3 (parent)
chain: SKPKTFQAYLDDCHRRYSCAHCRA

Variants of: B1
Assay: protein stability index of a GFP-peptide fusion (GPS, HEK-293T) (PSI 1-6); higher = more stable
Details: c terminus: a fixed tail appended
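Note: lentivirally expressed fusions sorted by FACS into six bins by GFP to DsRed ratio, PSI derived from sequencing read proportions per bin multiplied by bin number.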

Protein stability index of substitutions, site by site:
E20: R 3.24; L 2.56; M 2.79; A 3.57; D 3.35; N 2.92; T 2.24; S 2.93; C 3.23; W 2.17; F 2.88; I 1.67; G 3.17; K 3.74; V 2.49; Q 2.74; H 2.29; P 2.44; Y 2.84
R22: T 3.77; K 3.81; H 3.19; V 3.12; W 4.24; P 3; N 3.78; A 3.56; F 3.44; G 3.66; D 3.44; L 2.87; E 3.73; S 2.81; M 3.45; Q 3.27; C 2.85; I 2.78; Y 2.31
I19: L 3; Q 4.12; A 4.03; P 4.04; N 3.94; G 3.87; H 2.92; D 3.98; M 3.75; C 3.29; S 3.67; W 3.6; V 3.73; Y 3.15; F 3.79; K 3.62; T 3.86
F18: L 3.75; N 4.16; S 4.3; K 3.44; W 3.2; R 3.9; P 3.62; T 3.96; V 3.67; Y 3.27; M 3.79; Q 3.94; I 3.08; H 3.19
E21: D 4.12; Y 2; F 2.39; M 2.81; G 2.49; T 3.13; R 3.19; I 2.96; Q 2.84; A 3.12; W 2.1; S 2.83; K 3.33; L 3.34; V 2.02; C 2.85; H 2.64; P 2.62; N 3.01
K23: H 3.38; P 3.36; T 3.52; M 3.26; L 2.49; D 4.48; A 3.45; R 2.95; S 3.16; F 2.9; C 3.36; Q 3.21; N 3.92; W 2.75; Y 2.99; I 2.47; V 2.49
Q24: F 2.96; D 3.62; L 2.79; T 2.84; P 2.6; K 4.36; G 3.29; R 3.48; M 2.56; H 2.91; E 3.44; Y 2.93; C 2.57; V 2.61; A 3.3; N 4.03; I 3.02; S 2.75; W 2.1

Variants of: B2
Assay: as above
Details: c terminus: a fixed tail appended

Protein stability index, by site and new letter:
S1: C 2.29; H 2.07; V 1.38; Y 1.99; E 1.52; L 3.27; M 2; F 1.67; R 1.92; P 2.67; G 2.07; I 2.81; W 1.66; K 1.98; D 2.21; A 2.11; N 2.04; Q 2.08
P3: E 2.31; D 2.11; F 3.23; G 2.13; A 1.66; C 2.6
K2: P 1.95; Q 2.31; V 2.22; L 1.85; N 2.34; A 2.18; W 2.58; E 1.63; S 1.8; D 2.89; C 2.38; T 2.19; F 1.88; Y 1.85; I 1.63; R 1.89; G 2.34; H 2; M 1.7
